The source of these data is PMC5171805.

The stoichiometry N is the number of molecules, sites or subunits per partner or assembly. Broadly, the Kd is the free concentration of one partner at which half of the binding sites on the other are occupied at equilibrium, for simple one-to-one binding. Read a high Kd as weaker binding. A word on the koff: it is the rate constant with which the complex falls apart. A low value points to slow dissociation. By kon is commonly meant a measure of how fast the partners come together. The low end stands for slow association, the high end for fast association.

Assay [1] deals with MEDI1912 IgG (human). Kind of assay: native MS; nESI-IMS-MS, 1 mg/mL dialysed into 150 mM ammonium acetate, pH 6; dimer estimated with respect to the monomer ion intensity.
Assay [2] concerns the target MEDI1912 IgG (human). Kind of assay: AUC; sedimentation velocity, 1 mg/mL, 20 °C, 20 mM sodium succinate, 125 mM arginine, pH 6.0 or 150 mM ammonium acetate, pH 6; 28,000 rpm; SEDFIT.
The target of assay [3] is human NGF (construct not stated) (human) (UniProt P01138). Kind of assay: not stated; Kd for the antigen; method and data in Supplementary Table 2.
The target of a further assay is MEDI1912_STT (human). Kind of assay: SPR; Biacore 2000, HBS-EP buffer; 100 RU MEDI1912 or MEDI1912_STT IgG amine coupled to a C1 sensor chip; two-fold dilutions of βNGF (10 nM to 78 fM) at 50 µl/min, 300-3600 s dissociation; 1:1 Langmuir fit. On the technique in general: SPR reads the build-up and loss of mass on a sensor chip optically.
The next assay has as its target MEDI1912 (human). The description is as above.

MEDI1912 IgG (antibody): in the assay with MEDI1912 IgG (human) [1], the dimer as percent of the monomer ion intensity is 11.4% and the stoichiometry N is less than 4. In the assay with MEDI1912 IgG (human) [2], this substance registered a percent dimer of more than 75% and a stoichiometry N of 2. Moreover, the Kd in assay [3] lay within 1.6 to 9.8 pM.

For “recombinant βNGF (R&D Systems) (from UniProt P01138 122-241) (ligand)”, in the assay with MEDI1912_STT (human), the koff is 3.2e-05 to 0.00015 s⁻¹ and the kon worked out at 1.8e+07 M⁻¹ s⁻¹. In the assay with MEDI1912 (human), this substance had a koff of 3.3e-05 to 0.0002 s⁻¹ and a kon of 2.1e+07 M⁻¹ s⁻¹.
